Laboratory results reported in patent US6696409 (PRINCE OF WALES MEDICAL RESEARCH INSTITUTE LIMITED POWMR, dated 2004).

T1: human neuropeptide Y Y2 receptor on SMS-MSN cells (human, UniProt P49146 1-381)
T1 construct: whole, on cells; also called NPY Y2 receptor; SMS-MSN (Y2)
T1 sequence (looked up): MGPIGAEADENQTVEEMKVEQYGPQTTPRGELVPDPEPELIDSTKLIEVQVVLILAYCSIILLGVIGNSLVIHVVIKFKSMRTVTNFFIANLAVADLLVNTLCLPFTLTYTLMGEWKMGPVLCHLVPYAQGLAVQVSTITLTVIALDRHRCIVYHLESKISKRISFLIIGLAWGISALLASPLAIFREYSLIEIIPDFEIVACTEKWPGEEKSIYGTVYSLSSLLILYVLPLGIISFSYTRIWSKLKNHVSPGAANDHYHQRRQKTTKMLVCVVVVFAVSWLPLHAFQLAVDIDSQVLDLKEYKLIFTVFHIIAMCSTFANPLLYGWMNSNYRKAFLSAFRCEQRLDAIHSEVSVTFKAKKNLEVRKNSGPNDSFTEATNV

T2: human neuropeptide Y Y1 receptor on SK-N-MC cells (human, UniProt P25929 1-384)
T2 construct: whole, on cells; also called NPY Y1 receptor; SK-N-MC (Y1)
T2 sequence (looked up): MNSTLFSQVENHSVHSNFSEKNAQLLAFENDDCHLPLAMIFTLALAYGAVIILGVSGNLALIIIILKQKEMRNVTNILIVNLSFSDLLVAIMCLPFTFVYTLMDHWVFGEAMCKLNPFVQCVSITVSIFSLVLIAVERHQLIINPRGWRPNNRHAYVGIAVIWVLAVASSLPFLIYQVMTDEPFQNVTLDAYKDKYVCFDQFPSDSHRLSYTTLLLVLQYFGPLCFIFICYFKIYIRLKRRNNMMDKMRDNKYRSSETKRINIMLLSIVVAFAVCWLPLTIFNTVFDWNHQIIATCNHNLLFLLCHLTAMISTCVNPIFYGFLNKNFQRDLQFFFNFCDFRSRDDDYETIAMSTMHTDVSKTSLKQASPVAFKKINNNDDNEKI


Experiments:
[1] = target: Y2-like receptors in anaesthetised rats (rat); assay: cell-based or functional assay
[2] = target: Y1 receptors in anaesthetised rats (rat); assay: cell-based or functional assay
[3] = target: T1, human neuropeptide Y Y2 receptor on …; assay: competition with 30 pM [125I]NPY on SMS-MSN cells (human Y2), filtration
[4] = target: T2, human neuropeptide Y Y1 receptor on …; assay: competition with 30 pM [125I]NPY on SK-N-MC cells (human Y1), filtration

| Binder | EC50 of the change in pulse interval (PI %), vagal stimulation in anaesthetised rats [1] | Increase in BP (rel to NPY), anaesthetised rats [2] | IC50 [3] | IC50 [4] |
| --- | --- | --- | --- | --- |
| Ac-LRAALNLLTRQRY-NH2 [Ac[A26,27,L28,31]NPY24-36] | 1 nmol | 0 relative to NPY |  |  |
| Ac-LRHYINLITRQRY-NH2 (peptide, UniProt P01303 52-64, looked up) [AcNPY24-36] |  | 0 relative to NPY |  |  |
| Ac-ARAALNAATRQRY-NH2 [Ac[A24,26,27,30,31,L28]NPY24-36] | 0.56 nmol | 0 relative to NPY | 3.16 nM |  |
| Neuropeptide Y (ligand) peptide: not shown |  | 1 relative to NPY |  |  |
| Ac-LRHYLNLLTRQRY-NH2 [Ac[L28,L31]NPY24-36] | 3.16 nmol | 0 relative to NPY |  |  |
| Ac-LRHYANLLTRQRY-NH2 [Ac[A28,L31]NPY24-36] | 2.75 nmol | 0 relative to NPY | 12.6 nM |  |
| Ac-LRHALNLLTRQRY-NH2 [Ac[A27,L28,L31]NPY24-36] | 0.52 nmol | 0 relative to NPY | 0.13 nM |  |
| Ac-LAHYRNLLTRQRY-NH2 [Ac[A25,R28,L31]NPY24-36] | 1.95 nmol | 0 relative to NPY | 0.1 nM | 692 nM |
| Ac-LRHYLNALTRQRY-NH2 [Ac[L28,A30,L31]NPY24-36] | 0.39 nmol | 0 relative to NPY | 6.31 nM |  |
| Ac-LRHYLNLATRQRY-NH2 [Ac[L28,A31]NPY24-36] | 0.78 nmol | 0 relative to NPY | 0.06 nM |  |
| Ac-LRAYLNLLTRQRY-NH2 [Ac[A26,L28,L31]NPY24-36] | 1.26 nmol | 0 relative to NPY | 63.1 nM |  |
| Ac-LRHYLALLTRQRY-NH2 [Ac[L28,A29,L31]NPY24-36] | 1.48 nmol | 0 relative to NPY | 0.05 nM |  |
| Ac-ARHYLNLLTRQRY-NH2 [Ac[A24,L28,L31]NPY24-36] | 0.46 nmol | 0 relative to NPY | 19.2 nM |  |
| Ac-ARHALNLLTRQRY-NH2 (also called Ac[Ala24, Ala27, Leu28, Leu31]NPY(24-36)) [Ac[A24,A27,L28,L31]NPY24-36] | 0.89 nmol | 0 relative to NPY | 0.03 nM |  |
| Ac-LRHYLNLLARQRY-NH2 [Ac[L28,L31,A32]NPY24-36] | 6.46 nmol | 0 relative to NPY | 2.51 nM |  |
| Ac-LAHYLNLLTRQRY-NH2 [Ac[A25,L28,L31]NPY24-36] | 1.58 nmol | 0 relative to NPY | 2 nM |  |
